Results published in article PMC314469, “Protein Interaction Networks by Proteome Peptide Scanning” (PLoS Biology, 2004).

Key:
Assay in all cases: SPOT array
[1] = biological target: T1, Rvs167 SH3 (RV167_YEAST), P39743
T1 chain: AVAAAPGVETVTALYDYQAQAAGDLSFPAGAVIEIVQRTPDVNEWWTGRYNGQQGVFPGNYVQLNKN

[2] = biological target: T2, Yfr024 SH3 (LSB3_YEAST), P43603
T2 chain: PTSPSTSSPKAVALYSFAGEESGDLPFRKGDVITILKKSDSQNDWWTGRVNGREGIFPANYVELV

[3] = biological target: T3, Boi2 SH3 (BOI2_YEAST), P39969
T3 chain: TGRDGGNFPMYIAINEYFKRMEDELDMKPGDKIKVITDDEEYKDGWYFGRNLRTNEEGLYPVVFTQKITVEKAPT

[4] = biological target: T4, Yhr016c SH3 (YSC84_YEAST), P32793
T4 chain: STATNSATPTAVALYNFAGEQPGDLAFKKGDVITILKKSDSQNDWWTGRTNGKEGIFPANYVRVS

[5] = biological target: T5, Boi1 SH3 (BOI1_YEAST), P38041
T5 chain: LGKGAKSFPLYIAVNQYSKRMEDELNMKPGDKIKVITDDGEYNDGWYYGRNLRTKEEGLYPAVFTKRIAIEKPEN

B1: YFL007W 51-64 (peptide)
chain: DGRPHSPLRARSAT
Work on B1 yielded a normalised SPOT signal, Boehringer light units (BLU); mean over the file's lines of this peptide [1] of 75.7, a normalised SPOT signal, Boehringer light units (BLU); mean over the file's lines of this peptide [2] of 1500 and a normalised SPOT signal, Boehringer light units (BLU); mean over the file's lines of this peptide [3] of 21.9. It also gave a normalised SPOT signal, Boehringer light units (BLU); mean over the file's lines of this peptide [4] of 193 and a normalised SPOT signal, Boehringer light units (BLU); mean over the file's lines of this peptide [5] of 1690.

B2: YNL134C 130-143 (peptide)
chain: DKLPEGPVKSLEGA
For B2, the normalised SPOT signal, Boehringer light units (BLU); mean over the file's lines of this peptide [1] was 55.7, the normalised SPOT signal, Boehringer light units (BLU); mean over the file's lines of this peptide [2] was 87.8 and the normalised SPOT signal, Boehringer light units (BLU); mean over the file's lines of this peptide [3] was 73.3. For the same binder, the normalised SPOT signal, Boehringer light units (BLU); mean over the file's lines of this peptide [4] was 89.5 and the normalised SPOT signal, Boehringer light units (BLU); mean over the file's lines of this peptide [5] was 35.5.

B3: YOR039W 203-216 (peptide)
chain: DMVPKHPTKRYVPK
For B3, the normalised SPOT signal, Boehringer light units (BLU); mean over the file's lines of this peptide [1] was 94.1, the normalised SPOT signal, Boehringer light units (BLU); mean over the file's lines of this peptide [2] was 1770 and the normalised SPOT signal, Boehringer light units (BLU); mean over the file's lines of this peptide [3] was 114. It also gave a normalised SPOT signal, Boehringer light units (BLU); mean over the file's lines of this peptide [4] of 460 and a normalised SPOT signal, Boehringer light units (BLU); mean over the file's lines of this peptide [5] of 160.

B4: YBL007C 805-818 (peptide)
chain: DLQPLEPKKAAAST
In the case of B4, the normalised SPOT signal, Boehringer light units (BLU); mean over the file's lines of this peptide [1] is reported as 30.3, the normalised SPOT signal, Boehringer light units (BLU); mean over the file's lines of this peptide [2] is reported as 37.7 and the normalised SPOT signal, Boehringer light units (BLU); mean over the file's lines of this peptide [3] is reported as 104. It also gave a normalised SPOT signal, Boehringer light units (BLU); mean over the file's lines of this peptide [4] of 0 and a normalised SPOT signal, Boehringer light units (BLU); mean over the file's lines of this peptide [5] of 121.

B5: YJL127C 172-185 (peptide)
chain: DLKPAYPGRSAHVV
Work on B5 yielded a normalised SPOT signal, Boehringer light units (BLU); mean over the file's lines of this peptide [1] of 31.5, a normalised SPOT signal, Boehringer light units (BLU); mean over the file's lines of this peptide [2] of 8830 and a normalised SPOT signal, Boehringer light units (BLU); mean over the file's lines of this peptide [3] of 77.4. For the same binder, the normalised SPOT signal, Boehringer light units (BLU); mean over the file's lines of this peptide [4] was 1390 and the normalised SPOT signal, Boehringer light units (BLU); mean over the file's lines of this peptide [5] was 20.7.

B6: YPL175W 432-445 (peptide)
chain: DLAPKWPKKTVSNE
B6 was tested, and the normalised SPOT signal, Boehringer light units (BLU); mean over the file's lines of this peptide [1] was 7.2, the normalised SPOT signal, Boehringer light units (BLU); mean over the file's lines of this peptide [2] was 1590 and the normalised SPOT signal, Boehringer light units (BLU); mean over the file's lines of this peptide [3] was 14.6. The normalised SPOT signal, Boehringer light units (BLU); mean over the file's lines of this peptide [4] was 110 and the normalised SPOT signal, Boehringer light units (BLU); mean over the file's lines of this peptide [5] was 48.2.

B7: YCR065W 382-395 (peptide)
chain: DPLPYSPLKLYDQK
B7 was tested, and the normalised SPOT signal, Boehringer light units (BLU); mean over the file's lines of this peptide [1] was 62.6, the normalised SPOT signal, Boehringer light units (BLU); mean over the file's lines of this peptide [2] was 117 and the normalised SPOT signal, Boehringer light units (BLU); mean over the file's lines of this peptide [3] was 134. The normalised SPOT signal, Boehringer light units (BLU); mean over the file's lines of this peptide [4] was 216 and the normalised SPOT signal, Boehringer light units (BLU); mean over the file's lines of this peptide [5] was 58.9.

B8: YOL033W 38-51 (peptide)
chain: DIHPSLPVRTRFAP
Binder B8 has a normalised SPOT signal, Boehringer light units (BLU); mean over the file's lines of this peptide [1] of 943, a normalised SPOT signal, Boehringer light units (BLU); mean over the file's lines of this peptide [2] of 24600 and a normalised SPOT signal, Boehringer light units (BLU); mean over the file's lines of this peptide [3] of 30.2. The normalised SPOT signal, Boehringer light units (BLU); mean over the file's lines of this peptide [4] was 5090 and the normalised SPOT signal, Boehringer light units (BLU); mean over the file's lines of this peptide [5] was 6780.

B9: YCL008C 158-171 (peptide)
chain: DQAPSLPPKPNTQL
In the case of B9, the normalised SPOT signal, Boehringer light units (BLU); mean over the file's lines of this peptide [1] is reported as 32.3, the normalised SPOT signal, Boehringer light units (BLU); mean over the file's lines of this peptide [2] is reported as 17600 and the normalised SPOT signal, Boehringer light units (BLU); mean over the file's lines of this peptide [3] is reported as 72.2. The normalised SPOT signal, Boehringer light units (BLU); mean over the file's lines of this peptide [4] was 4710 and the normalised SPOT signal, Boehringer light units (BLU); mean over the file's lines of this peptide [5] was 54.8.

B10: YDR444W 186-199 (peptide)
chain: DLPPKFPEKPVHLV
Work on B10 yielded a normalised SPOT signal, Boehringer light units (BLU); mean over the file's lines of this peptide [1] of 90.9, a normalised SPOT signal, Boehringer light units (BLU); mean over the file's lines of this peptide [2] of 10300 and a normalised SPOT signal, Boehringer light units (BLU); mean over the file's lines of this peptide [3] of 25.7. For the same binder, the normalised SPOT signal, Boehringer light units (BLU); mean over the file's lines of this peptide [4] was 183 and the normalised SPOT signal, Boehringer light units (BLU); mean over the file's lines of this peptide [5] was 0.

B11: YNL021W 81-94 (peptide)
chain: DPHPEDPRRIYRIY
B11 was tested, and the normalised SPOT signal, Boehringer light units (BLU); mean over the file's lines of this peptide [1] was 14.1, the normalised SPOT signal, Boehringer light units (BLU); mean over the file's lines of this peptide [2] was 161 and the normalised SPOT signal, Boehringer light units (BLU); mean over the file's lines of this peptide [3] was 40.8. For the same binder, the normalised SPOT signal, Boehringer light units (BLU); mean over the file's lines of this peptide [4] was 75.3 and the normalised SPOT signal, Boehringer light units (BLU); mean over the file's lines of this peptide [5] was 660.

B12: YMR125W 18-31 (peptide)
chain: DFRPRMPKRQRIPP
In the case of B12, the normalised SPOT signal, Boehringer light units (BLU); mean over the file's lines of this peptide [1] is reported as 87.3, the normalised SPOT signal, Boehringer light units (BLU); mean over the file's lines of this peptide [2] is reported as 835 and the normalised SPOT signal, Boehringer light units (BLU); mean over the file's lines of this peptide [3] is reported as 96.7. For the same binder, the normalised SPOT signal, Boehringer light units (BLU); mean over the file's lines of this peptide [4] was 211 and the normalised SPOT signal, Boehringer light units (BLU); mean over the file's lines of this peptide [5] was 776.

B13: YBR202W 629-642 (peptide)
chain: DFTPVEPSKMREYI
With B13 the normalised SPOT signal, Boehringer light units (BLU); mean over the file's lines of this peptide [1] was 277, the normalised SPOT signal, Boehringer light units (BLU); mean over the file's lines of this peptide [2] was 15.3 and the normalised SPOT signal, Boehringer light units (BLU); mean over the file's lines of this peptide [3] was 59.7. It also gave a normalised SPOT signal, Boehringer light units (BLU); mean over the file's lines of this peptide [4] of 179 and a normalised SPOT signal, Boehringer light units (BLU); mean over the file's lines of this peptide [5] of 64.2.

B14: YPL057C 43-56 (peptide)
chain: DLNPDAPPKPQLIP
B14 was tested, and the normalised SPOT signal, Boehringer light units (BLU); mean over the file's lines of this peptide [1] was 11, the normalised SPOT signal, Boehringer light units (BLU); mean over the file's lines of this peptide [2] was 88.2 and the normalised SPOT signal, Boehringer light units (BLU); mean over the file's lines of this peptide [3] was 41.5. It also gave a normalised SPOT signal, Boehringer light units (BLU); mean over the file's lines of this peptide [4] of 65.9 and a normalised SPOT signal, Boehringer light units (BLU); mean over the file's lines of this peptide [5] of 96.1.

B15: YNL284C-B 1135-1148 (peptide)
chain: DLPPEPPTKLSDSF
Binder B15 has a normalised SPOT signal, Boehringer light units (BLU); mean over the file's lines of this peptide [1] of 30.9, a normalised SPOT signal, Boehringer light units (BLU); mean over the file's lines of this peptide [2] of 56.5 and a normalised SPOT signal, Boehringer light units (BLU); mean over the file's lines of this peptide [3] of 30.6. It also gave a normalised SPOT signal, Boehringer light units (BLU); mean over the file's lines of this peptide [4] of 105 and a normalised SPOT signal, Boehringer light units (BLU); mean over the file's lines of this peptide [5] of 75.

B16: YBL042C 90-103 (peptide)
chain: DHKPENPIRTFKDL
With B16 the normalised SPOT signal, Boehringer light units (BLU); mean over the file's lines of this peptide [1] was 120, the normalised SPOT signal, Boehringer light units (BLU); mean over the file's lines of this peptide [2] was 238 and the normalised SPOT signal, Boehringer light units (BLU); mean over the file's lines of this peptide [3] was 122. For the same binder, the normalised SPOT signal, Boehringer light units (BLU); mean over the file's lines of this peptide [4] was 175 and the normalised SPOT signal, Boehringer light units (BLU); mean over the file's lines of this peptide [5] was 167.

B17: YOR335C 774-787 (peptide)
chain: DKLPFSPIKEKKLK
In the case of B17, the normalised SPOT signal, Boehringer light units (BLU); mean over the file's lines of this peptide [1] is reported as 118, the normalised SPOT signal, Boehringer light units (BLU); mean over the file's lines of this peptide [2] is reported as 64.1 and the normalised SPOT signal, Boehringer light units (BLU); mean over the file's lines of this peptide [3] is reported as 39.8. The normalised SPOT signal, Boehringer light units (BLU); mean over the file's lines of this peptide [4] was 156 and the normalised SPOT signal, Boehringer light units (BLU); mean over the file's lines of this peptide [5] was 466.
